The assay deals with Syngnathus scovelli chapparvovirus (SsChPV) VP, capsid protein (Syngnathus scovelli chapparvovirus). Put plainly: cryo-EM structure.

In turn, “Syngnathus scovelli chapparvovirus (SsChPV) VP, capsid protein (natural protein)” displayed a stoichiometry N of 60.

These data come from PMC12115719.
